US11078259B2, “Methods and compositions for promoting thermogenic potential” (Joslin Diabetes Center, Inc., priority 2015, dated 2021)

Legend:
Format in all cases: cell-based, human
[1] = test system: hWAT-SVF and hBAT-SVF progenitors; assay: Glucose uptake, fatty acid uptake and oxidation in adipocytes from BMP7 pre-treated progenitors; conditions: hWAT-SVF from both subjects and hBAT-SVF from Subject 2; 3.3 nM BMP7 pre-exposure 6 days
Description: (§1) FIG. 6B depicts OCR assayed using the Seahorse extracellular flux analyzer in differentiated hWA and hBA from Sub1 and Sub2 that were pre-treated with 3.3 nM BMP7 or vehicle (Veh) for 6 days and then differentiation into mature adipocytes. Equal numbers of progenitors were plated and differentiated. Quantification of OCR in the absence (Basal Res.) and presence of oligomycin (Proton Leak) or FCCP (Max. Res.) are shown. Data are presented as mean±s.e.m. (n=10; two-tailed Student's t-test; *P<0.05, **P<0.01, ***P<0.001). A representative experiment from a total of two independent studies is shown. Data are represented in the same order as appeared in the legend. […]
After serum starvation in DMEM/H medium containing 1% of BSA for 2-3 h, differentiated human white and brown adipocytes were washed with HEPES buffer. […] Glucose transport was determined by the addition of 2-deoxy-[^3H]glucose (0.1 mM, 0.5 μCi/mL; PerkinElmer Life and Analytical Science, Waltham, Mass.). […] Cells were then lysed in 0.1% SDS, and glucose uptake was assessed in 4 mL of scintillant using Beckman LS6500 scintillation counter (Beckman Coulter, Indianapolis Ind.). Nonspecific 2-deoxy-[^3H]glucose uptake was measured in the presence of cytochalasin B (20 μM) and was subtracted from the total uptake to get specific glucose uptake. Results were expressed as the mean±s.e.m. of the indicated number of experiments. […]

[2] = test system: hWAT-SVF and hBAT-SVF progenitors; assay: OCR (Seahorse) in adipocytes from BMP7 pre-treated progenitors; conditions: hWAT-SVF from both subjects and hBAT-SVF from Subject 2; 3.3 nM BMP7 pre-exposure 6 days
Description: as §1, with “legend. FIGS. 6C and 6D depict measurement of glucose uptake using ^3H 2-Deoxy-Glucose in differentiated hWA and hBA from Sub1 and Sub2 that were pre-treated with 3.3 nM BMP7 or vehicle (Veh) for 6 days and then differentiation into mature adipocytes.” for “legend.”
To assess mitochondrial respiration, a Seahorse Extracellular Flux Analyzer (Seahorse Bioscience Inc., North Billerica, Mass.) was used to quantify oxygen consumption rates (OCR) of differentiated human white and brown adipocytes. […] After adipogenic induction for 12 days, OCR was analyzed. […] All data were average of four-time points with 10 wells per time point by quantified in bar plots, and error bars are standard error of the mean (s.e.m.). […]

[3] = test system: hWAT-SVF and hBAT-SVF progenitors; assay: BMP pre-treatment of progenitors, Q-RT-PCR for UCP1 and PPARγ in mature adipocytes

B1: BMP7: Recombinant human BMP7, an inducer of brown adipogenesis (protein, UniProt P18075 293-431, looked up)
Bone morphogenetic protein 7: STGSKQRSQNRSKTPKNQEALRMANVAENSSSDQRQACKKHELYVSFRDLGWQDWIIAPEGYAAYYCEGECAFPLNSYMNATNHAIVQTLVHFINPETVPKPCCAPTQLNAISVLYFDDSSNVILKKYRNMVVRACGCH
- fuel utilization in mature adipocytes [1]: enhanced
- mitochondrial activity in mature adipocytes [2]: enhanced
- UCP1 expression in mature adipocytes ([3]; hWAT-SVF from both subjects and hBAT-SVF from Subject 2, 3.3 nM BMP7 pre-exposure 6 days): increased
- PPARγ expression ([3]; mature brown adipocytes from Subject 2 only, BMP7 pretreatment): augmented
